Experimental data from article PMC12416549 (2024).
Numbering of substitutions follows the chain as printed. Numbers in names are those of the source.

B1: D65E (designed binder)
chain: MTLQELLREEALRRAEAEAFRYALELLAEKFPEQKEYLLDLAEEIESQIRSLSGVDVEDVRKFLEKEWAWVKELLAEHPAELAEVEAARAARLAELRAEVEAKVAA
B2: V60P (designed binder)
chain: B1 chain with V60P, E65D
B3: E9G (designed binder)
chain: B1 chain with E9G, E65D
B4: E36R (designed binder)
chain: B1 chain with E36R, E65D
B5: K72H (designed binder)
chain: B1 chain with E65D, K72H
B6: E86A (designed binder)
chain: B1 chain with E65D, E86A
B7: A91D (designed binder)
chain: B1 chain with E65D, A91D
B8: A90M (designed binder)
chain: B1 chain with E65D, A90M
B9: A98R (designed binder)
chain: B1 chain with E65D, A98R
B10: L26Q (designed binder)
chain: B1 chain with L26Q, E65D
B11: V85T (designed binder)
chain: B1 chain with E65D, V85T
B12: E18R (designed binder)
chain: B1 chain with E18R, E65D
B13: K35H (designed binder)
chain: B1 chain with K35H, E65D
B14: Q34W (designed binder)
chain: B1 chain with Q34W, E65D
B15: A19E (designed binder)
chain: B1 chain with A19E, E65D
B16: F20N (designed binder)
chain: B1 chain with F20N, E65D
B17: A28G (designed binder)
chain: B1 chain with A28G, E65D
B18: S47T (designed binder)
chain: B1 chain with S47T, E65D
B19: V104T (designed binder)
chain: B1 chain with E65D, V104T
B20: K72P (designed binder)
chain: B1 chain with E65D, K72P
B21: E101F (designed binder)
chain: B1 chain with E65D, E101F
B22: L3N (designed binder)
chain: B1 chain with L3N, E65D
B23: E86W (designed binder)
chain: B1 chain with E65D, E86W
B24: E36T (designed binder)
chain: B1 chain with E36T, E65D
B25: K30S (designed binder)
chain: B1 chain with K30S, E65D
B26: K66P (designed binder)
chain: B1 chain with E65D, K66P
B27: Y37K (designed binder)
chain: B1 chain with Y37K, E65D
B28: Q4K (designed binder)
chain: B1 chain with Q4K, E65D
B29: R21P (designed binder)
chain: B1 chain with R21P, E65D
B30: S51D (designed binder)
chain: B1 chain with S51D, E65D
B31: L3A (designed binder)
chain: B1 chain with L3A, E65D
B32: Q4M (designed binder)
chain: B1 chain with Q4M, E65D
B33: K30R (designed binder)
chain: B1 chain with K30R, E65D
B34: L93A (designed binder)
chain: B1 chain with E65D, L93A
B35: Y37W (designed binder)
chain: B1 chain with Y37W, E65D
B36: E33F (designed binder)
chain: B1 chain with E33F, E65D
B37: K66V (designed binder)
chain: B1 chain with E65D, K66V
B38: L75E (designed binder)
chain: B1 chain with E65D, L75E
B39: A11L (designed binder)
chain: B1 chain with A11L, E65D
B40: L3E (designed binder)
chain: B1 chain with L3E, E65D
B41: R21D (designed binder)
chain: B1 chain with R21D, E65D
B42: V100C (designed binder)
chain: B1 chain with E65D, V100C
B43: E58W (designed binder)
chain: B1 chain with E58W, E65D
B44: E33R (designed binder)
chain: B1 chain with E33R, E65D
B45: W68V (designed binder)
chain: B1 chain with E65D, W68V
B46: A94Q (designed binder)
chain: B1 chain with E65D, A94Q
B47: L26R (designed binder)
chain: B1 chain with L26R, E65D
B48: P32H (designed binder)
chain: B1 chain with P32H, E65D
B49: L75T (designed binder)
chain: B1 chain with E65D, L75T
B50: E86D (designed binder)
chain: B1 chain with E65D, E86D
B51: D56T (designed binder)
chain: B1 chain with D56T, E65D
B52: K66E (designed binder)
chain: B1 chain with E65D, K66E
B53: A105S (designed binder)
chain: B1 chain with E65D, A105S
B54: K62W (designed binder)
chain: B1 chain with K62W, E65D
B55: A80M (designed binder)
chain: B1 chain with E65D, A80M
B56: E58S (designed binder)
chain: B1 chain with E58S, E65D
B57: R21M (designed binder)
chain: B1 chain with R21M, E65D
B58: P32G (designed binder)
chain: B1 chain with P32G, E65D
B59: E99T (designed binder)
chain: B1 chain with E65D, E99T

Target: T1, TNFR1 (Homo sapiens, UniProt P19438)
T1 chain: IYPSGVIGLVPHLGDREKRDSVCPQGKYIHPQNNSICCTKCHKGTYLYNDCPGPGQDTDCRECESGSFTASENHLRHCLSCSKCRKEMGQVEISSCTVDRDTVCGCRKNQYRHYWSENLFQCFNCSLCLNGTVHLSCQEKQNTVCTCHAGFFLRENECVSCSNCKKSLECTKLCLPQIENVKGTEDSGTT
Assay: yeast display SC50

Binder	apparent Kd (screen) [nM]
B1	0.446
B2	12.5
B3	1.69
B4	0.653
B5	0.49
B6	0.956
B7	0.49
B8	0.539
B9	0.653
B10	0.593
B11	0.446
B12	0.718
B13	0.446
B14	1.69
B15	0.956
B16	0.446
B17	0.446
B18	0.653
B19	0.956
B20	11.4

Binder	apparent Kd (screen) [nM]
B21	0.593
B22	24.4
B23	2.73
B24	2.25
B25	0.718
B26	3.99
B27	0.539
B28	0.49
B29	0.49
B30	2.05
B31	2.73
B32	0.49
B33	0.593
B34	1.4
B35	3.3
B36	0.956
B37	0.653
B38	0.653
B39	2.05
B40	18.3

Binder	apparent Kd (screen) [nM]
B41	0.539
B42	0.446
B43	0.653
B44	0.49
B45	4.39
B46	0.79
B47	0.446
B48	0.79
B49	0.869
B50	0.446
B51	2.48
B52	0.869
B53	0.79
B54	0.593
B55	0.49
B56	0.593
B57	0.956
B58	0.593
B59	0.79
